# Experimental data published in IntAct's records for PubMed 25910212.
# B1: EF-hand domain-containing protein 1 (Homo sapiens), Q5JVL4 (parent)
# chain: MVSNPVHGLPFLPGTSFKDSTKTAFHRSQTLSYRNGYAIVRRPTVGIGGDRLQFNQLSQAELDELASKAPVLTYGQPKQAPPADFIPAHVAFDKKVLKFDAYFQEDVPMSTEEQYRIRQVNIYYYLEDDSMSVIEPVVENSGILQGKLIKRQRLAKNDRGDHYHWKDLNRGINITIYGKTFRVVDCDQFTQVFLESQGIELNPPEKMALDPYTELRKQPLRKYVTPSDFDQLKQFLTFDKQVLRFYAIWDDTDSMYGECRTYIIHYYLMDDTVEIREVHERNDGRDPFPLLMNRQRVPKVLVENAKNFPQCVLEISDQEVLEWYTAKDFIVGKSLTILGRTFFIYDCDPFTRRYYKEKFGITDLPRIDVSKREPPPVKQELPPYNGFGLVEDSAQNCFALIPKAPKKDVIKMLVNDNKVLRYLAVLESPIPEDKDRRFVFSYFLATDMISIFEPPVRNSGIIGGKYLGRTKVVKPYSTVDNPVYYGPSDFFIGAVIEVFGHRFIILDTDEYVLKYMESNAAQYSPEALASIQNHVRKREAPAPEAESKQTEKDPGVQELEALIDTIQKQLKDHSCKDNIREAFQIYDKEASGYVDRDMFFKICESLNVPVDDSLVKELIRMCSHGEGKINYYNFVRAFSN
# partner: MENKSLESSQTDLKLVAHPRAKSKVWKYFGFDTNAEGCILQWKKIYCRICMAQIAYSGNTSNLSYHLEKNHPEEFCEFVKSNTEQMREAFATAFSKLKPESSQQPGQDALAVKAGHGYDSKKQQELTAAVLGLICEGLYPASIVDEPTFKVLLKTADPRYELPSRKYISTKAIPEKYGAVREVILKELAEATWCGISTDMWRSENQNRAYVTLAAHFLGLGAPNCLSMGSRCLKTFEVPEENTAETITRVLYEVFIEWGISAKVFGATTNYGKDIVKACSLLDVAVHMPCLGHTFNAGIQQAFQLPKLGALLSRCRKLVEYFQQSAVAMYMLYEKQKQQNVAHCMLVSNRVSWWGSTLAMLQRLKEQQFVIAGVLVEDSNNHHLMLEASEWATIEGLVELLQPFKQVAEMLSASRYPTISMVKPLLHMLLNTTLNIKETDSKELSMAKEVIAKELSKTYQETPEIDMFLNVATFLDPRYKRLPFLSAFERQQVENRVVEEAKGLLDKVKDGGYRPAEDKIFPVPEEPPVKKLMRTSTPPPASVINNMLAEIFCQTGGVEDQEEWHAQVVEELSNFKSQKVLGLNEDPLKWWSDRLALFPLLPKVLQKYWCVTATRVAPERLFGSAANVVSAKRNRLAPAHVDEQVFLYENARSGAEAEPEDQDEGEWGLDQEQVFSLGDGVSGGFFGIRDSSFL
# B2: EF-hand domain-containing protein 1 (Homo sapiens), Q5JVL4 (parent)
# chain: B1 chain
# partner: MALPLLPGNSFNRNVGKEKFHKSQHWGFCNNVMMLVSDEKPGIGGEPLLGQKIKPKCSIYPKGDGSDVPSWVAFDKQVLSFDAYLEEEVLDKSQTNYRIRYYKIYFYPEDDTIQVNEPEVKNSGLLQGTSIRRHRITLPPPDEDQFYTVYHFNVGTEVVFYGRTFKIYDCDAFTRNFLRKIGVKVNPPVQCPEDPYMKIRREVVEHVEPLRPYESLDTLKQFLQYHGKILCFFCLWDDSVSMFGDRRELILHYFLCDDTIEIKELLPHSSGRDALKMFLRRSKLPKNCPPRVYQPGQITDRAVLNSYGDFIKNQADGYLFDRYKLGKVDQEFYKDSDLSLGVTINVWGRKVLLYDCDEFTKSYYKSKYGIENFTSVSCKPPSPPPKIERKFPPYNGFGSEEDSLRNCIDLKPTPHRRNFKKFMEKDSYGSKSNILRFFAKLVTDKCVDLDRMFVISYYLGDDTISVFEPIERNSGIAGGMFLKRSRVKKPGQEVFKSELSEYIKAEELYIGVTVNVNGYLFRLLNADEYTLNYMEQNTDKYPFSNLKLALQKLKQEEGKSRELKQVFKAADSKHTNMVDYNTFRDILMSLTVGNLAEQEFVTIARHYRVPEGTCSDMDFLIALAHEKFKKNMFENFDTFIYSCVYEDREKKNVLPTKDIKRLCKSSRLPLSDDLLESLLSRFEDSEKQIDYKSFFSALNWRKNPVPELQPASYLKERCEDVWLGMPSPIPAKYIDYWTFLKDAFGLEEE
# B3: Multifunctional procollagen lysine hydroxylase and glycosyltransferase LH3 (Homo sapiens), O60568 (parent)
# chain: MTSSGPGPRFLLLLPLLLPPAASASDRPRGRDPVNPEKLLVITVATAETEGYLRFLRSAEFFNYTVRTLGLGEEWRGGDVARTVGGGQKVRWLKKEMEKYADREDMIIMFVDSYDVILAGSPTELLKKFVQSGSRLLFSAESFCWPEWGLAEQYPEVGTGKRFLNSGGFIGFATTIHQIVRQWKYKDDDDDQLFYTRLYLDPGLREKLSLNLDHKSRIFQNLNGALDEVVLKFDRNRVRIRNVAYDTLPIVVHGNGPTKLQLNYLGNYVPNGWTPEGGCGFCNQDRRTLPGGQPPPRVFLAVFVEQPTPFLPRFLQRLLLLDYPPDRVTLFLHNNEVFHEPHIADSWPQLQDHFSAVKLVGPEEALSPGEARDMAMDLCRQDPECEFYFSLDADAVLTNLQTLRILIEENRKVIAPMLSRHGKLWSNFWGALSPDEYYARSEDYVELVQRKRVGVWNVPYISQAYVIRGDTLRMELPQRDVFSGSDTDPDMAFCKSFRDKGIFLHLSNQHEFGRLLATSRYDTEHLHPDLWQIFDNPVDWKEQYIHENYSRALEGEGIVEQPCPDVYWFPLLSEQMCDELVAEMEHYGQWSGGRHEDSRLAGGYENVPTVDIHMKQVGYEDQWLQLLRTYVGPMTESLFPGYHTKARAVMNFVVRYRPDEQPSLRPHHDSSTFTLNVALNHKGLDYEGGGCRFLRYDCVISSPRKGWALLHPGRLTHYHEGLPTTWGTRYIMVSFVDP
# partner: B2 partner
# B4: EF-hand domain-containing protein 1 (Homo sapiens), Q5JVL4 (parent)
# chain: B1 chain
# partner: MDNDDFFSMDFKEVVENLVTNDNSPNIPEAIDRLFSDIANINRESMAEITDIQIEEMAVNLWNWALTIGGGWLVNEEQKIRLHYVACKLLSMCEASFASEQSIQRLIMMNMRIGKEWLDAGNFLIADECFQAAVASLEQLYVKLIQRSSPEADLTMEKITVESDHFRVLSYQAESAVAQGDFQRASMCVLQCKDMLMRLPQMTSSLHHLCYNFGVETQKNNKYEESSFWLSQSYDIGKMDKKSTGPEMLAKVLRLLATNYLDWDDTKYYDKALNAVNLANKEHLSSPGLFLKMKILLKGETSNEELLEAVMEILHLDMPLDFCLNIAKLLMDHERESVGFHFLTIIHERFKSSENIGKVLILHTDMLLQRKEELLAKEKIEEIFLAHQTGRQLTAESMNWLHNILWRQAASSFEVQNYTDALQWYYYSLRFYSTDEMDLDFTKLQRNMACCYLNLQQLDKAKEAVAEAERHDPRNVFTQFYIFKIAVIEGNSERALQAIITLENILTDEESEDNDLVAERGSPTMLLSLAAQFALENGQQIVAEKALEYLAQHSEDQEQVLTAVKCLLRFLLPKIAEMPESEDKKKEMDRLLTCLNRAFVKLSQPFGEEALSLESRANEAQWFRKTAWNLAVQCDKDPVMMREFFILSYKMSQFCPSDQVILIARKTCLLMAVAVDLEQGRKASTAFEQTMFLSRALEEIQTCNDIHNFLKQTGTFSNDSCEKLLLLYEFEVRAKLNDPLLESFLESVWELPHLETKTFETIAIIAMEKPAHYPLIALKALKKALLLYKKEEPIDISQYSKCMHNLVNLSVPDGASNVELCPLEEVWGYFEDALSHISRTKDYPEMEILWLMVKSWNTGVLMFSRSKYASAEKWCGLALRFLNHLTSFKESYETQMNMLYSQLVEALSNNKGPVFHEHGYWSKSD
# Variants of: B1
# Settings: with zbed1_human ZBED1, O96006
row,Variant,effect of a mutation on the interaction
1,A394S,disrupting interaction strength
2,M448T,with no effect
3,T508R,disrupting interaction strength
4,R221H,disrupting interaction strength
5,R159W,with no effect

# Variants of: B2
# Settings: with efhc2_human EFHC2, Q5JST6
row,Variant,effect of a mutation on the interaction
1,P77T,disrupting interaction strength
2,R159W,with no effect
3,R221H,disrupting interaction strength
4,A394S,disrupting interaction strength
5,M448T,with no effect
6,T508R,with no effect

# Variants of: B3
# Settings: with efhc2_human EFHC2, Q5JST6
row,Variant,effect of a mutation on the interaction
1,N223S,with no effect

# Variants of: B4
# Settings: with TEX11, Q8IYF3-3
row,Variant,effect of a mutation on the interaction
1,P77T,with no effect
2,R159W,with no effect
3,R221H,disrupting interaction strength
4,A394S,disrupting interaction strength
5,M448T,with no effect
